Test results published in patent publication US20200317768A1 (published 2020).

T1: human FcγRIIaR extracellular domain, C-terminal His-tag (human, UniProt P12318 34-217)
T1 construct: also called human FcγRIIa (type R); FcgRIIaR; not shown: His-tag added to the C-terminus
T1 chain: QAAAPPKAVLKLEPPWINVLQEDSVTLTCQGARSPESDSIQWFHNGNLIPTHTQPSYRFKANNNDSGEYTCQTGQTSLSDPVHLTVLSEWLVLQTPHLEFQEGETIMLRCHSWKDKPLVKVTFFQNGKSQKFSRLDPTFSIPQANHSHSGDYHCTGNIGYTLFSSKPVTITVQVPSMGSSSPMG

T2: human FcγRIIaH extracellular domain, C-terminal His-tag (human, UniProt P12318 34-217)
T2 construct: also called human FcγRIIa (type H); FcgRIIaH; not shown: His-tag added to the C-terminus
T2 sequence: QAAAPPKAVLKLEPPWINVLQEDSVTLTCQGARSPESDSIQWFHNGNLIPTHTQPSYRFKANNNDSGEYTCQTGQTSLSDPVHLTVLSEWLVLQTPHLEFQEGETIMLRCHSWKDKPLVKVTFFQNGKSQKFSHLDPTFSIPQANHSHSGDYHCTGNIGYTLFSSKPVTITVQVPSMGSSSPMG

T3: human FcγRIIb extracellular domain, C-terminal His-tag (human, UniProt P31994 43-217)
T3 construct: also called FcgRIIb; not shown: His-tag added to the C-terminus
T3 sequence: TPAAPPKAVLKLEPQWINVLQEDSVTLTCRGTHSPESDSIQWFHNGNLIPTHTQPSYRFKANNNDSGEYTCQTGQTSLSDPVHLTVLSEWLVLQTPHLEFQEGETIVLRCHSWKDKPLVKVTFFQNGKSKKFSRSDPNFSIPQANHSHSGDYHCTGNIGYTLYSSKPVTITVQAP


Assays:
[1] = molecular target: T4, human FcγRIIIaV extracellular domain, C-terminal His-tag (human, UniProt P08637 17-208); assay: SPR (BIACORE), antibody captured, soluble FcgR as analyte, 25C
T4 construct: also called FcgRIIIaV; not shown: His-tag added to the C-terminus
Description: (§1) The kinetic analysis of interactions between these antibodies and FcγR was carried out using BIACORE® T200 or BIACORE® 4000 (GE Healthcare). HBS-EP+ (GE Healthcare) was used as the running buffer, and the measurement temperature was set to 25° C. A chip produced by immobilizing Protein A. Protein A/G or mouse anti-human IgG kappa light chain (BD Biosciences) onto a Series S Sensor Chip CM4 or CM5 (GE Healthcare) by the amine-coupling method was used. […] After the measurement, the antibody captured on the chip was washed off by allowing reaction with 10 mM glycine-HCl, pH1.5 and 25 mM NaOH so that the chip was regenerated and used repeatedly. The sensorgrams obtained as measurement results were analyzed by the 1:1 Langmuir binding model using the BIACORE® Evaluation Software to calculate the binding rate constant ka (L/mol/s) and dissociation rate constant kd (l/s), and the dissociation constant KD (mol/L) was calculated from these values. […] Regarding such interactions, KD values were calculated using the following 1:1 binding model described in BIACORE® T100 Software Handbook BR1006-48 Edition AE.
(§2) Human FcγRIIb-enhanced Fc variants with anti-myostatin variable region were constructed and their affinity for human FcγRs was evaluated. […] In addition, substitutions (Q311R/D413K or […]) were also introduced. The variants were expressed using M103202L1045-SK1 as light chain and their affinity to human FcγRs was analyzed according to the method shown in Example 34.

[2] = molecular target: T1, human FcγRIIaR extracellular domain, …; assay: as above
Description: as §1, §2

[3] = molecular target: T2, human FcγRIIaH extracellular domain, …; assay: as above
Description: as §1, §2

[4] = molecular target: T3, human FcγRIIb extracellular domain, …; assay: as above
Description: as §1, §2

[5] = molecular target: T4, human FcγRIIIaV extracellular domain, …; assay: SPR; KD of SG1 divided by KD of variant;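 further: relative to parent M103205H795-SG1 carrying the SG1 human heavy chain constant region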
Description: as §1, §2

[6] = molecular target: T1, human FcγRIIaR extracellular domain, …; assay: SPR; KD of SG1 divided by KD of variant;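 further: relative to parent M103205H795-SG1 carrying the SG1 human heavy chain constant region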
Description: as §1, §2

[7] = molecular target: T2, human FcγRIIaH extracellular domain, …; assay: SPR; KD of SG1 divided by KD of variant;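 further: relative to parent M103205H795-SG1 carrying the SG1 human heavy chain constant region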
Description: as §1, §2

[8] = molecular target: T3, human FcγRIIb extracellular domain, …; assay: SPR; KD of SG1 divided by KD of variant;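 further: relative to parent M103205H795-SG1 carrying the SG1 human heavy chain constant region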
Description: as §1, §2

T4 sequence (P08637 17-208 F176V): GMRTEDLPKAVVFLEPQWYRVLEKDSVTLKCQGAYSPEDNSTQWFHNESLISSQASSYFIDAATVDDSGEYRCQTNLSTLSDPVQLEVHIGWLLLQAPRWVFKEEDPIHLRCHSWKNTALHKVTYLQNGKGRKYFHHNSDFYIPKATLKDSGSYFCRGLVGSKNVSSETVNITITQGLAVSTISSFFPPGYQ

Row | Binder | Kd [1] [µM] | Kd [2] [µM] | Kd [3] [µM] | Kd [4] [µM] | KD fold (SG1 = 1) [5] [fold] | KD fold (SG1 = 1) [6] [fold] | KD fold (SG1 = 1) [7] [fold] | KD fold (SG1 = 1) [8] [fold]
1 | MS103240H795-TT30/M103202L1045-SK1 (antibody, human IgG1, kappa, CH = SG1 with P238D/T250V/V264I/S267A/T307P/Q311R/A330K/P343R (EU numbering)) heavy: QVQLVESGGGLVQPGGSLRLSCAVSGIDLSHDDISWVRQAPGKGLEWVSIISYAGSTYYASWAKGRLTISKDTSKNQVVLTMTNMDPVDTATYYCARGVPAYSHGGDLWGQGTLVTVSSASTKGPSVFPLAPSSKSTSGGTAALGCLVKDYFPEPVTVSWNSGALTSGVHTFPAVLQSSGLYSLSSVVTVPSSSLGTQTYICNVNHKPSNTKVDKKVEPKSCDKTHTCPPCPAPELLGGDSVFLFPPKPKDVLMISRTPEVTCVVIDVAHEDPEVKFNWYVDGVEVHNAKTKPREEQYNSTYRVVSVLPVLHRDWLNGKEYKCKVSNKALPKPIEKTISKAKGQRREPQVYTLPPSREEMTKNQVSLTCLVKGFYPSDIAVEWESNGQPENNYKTTPPVLDSDGSFFLYSKLTVDKSRWQQGNVFSCSVMHEALHNHYTQKSLSLSP light: DIVMTQSPATLSLSPGERATLSCTTSQSVYHENWLSWFQQKPGQPPKLLIYWASTLAYGVPSRFSGSGSGTDFTLTISSLQPEDAATYYCAGGYGGGRYAFGQGTKVEIKRTVAAPSVFIFPPSDEQLKSGTASVVCLLNNFYPREAKVQWKVDNALQSGNSQESVTEQDSKDSTYSLSSTLTLSKADYEKHKVYACEVTHQGLSSPVTKSFNRGEC | 66 | 14 | 150 | 0.57 | 0.012 | 0.08 | 0.005 | 10.2
2 | MS103240H795-TT31/M103202L1045-SK1 (antibody, human IgG1, kappa, CH = SG1 with P238D/T250V/V264I/S267A/T307P/Q311R/A330K/D413K (EU numbering)) heavy: QVQLVESGGGLVQPGGSLRLSCAVSGIDLSHDDISWVRQAPGKGLEWVSIISYAGSTYYASWAKGRLTISKDTSKNQVVLTMTNMDPVDTATYYCARGVPAYSHGGDLWGQGTLVTVSSASTKGPSVFPLAPSSKSTSGGTAALGCLVKDYFPEPVTVSWNSGALTSGVHTFPAVLQSSGLYSLSSVVTVPSSSLGTQTYICNVNHKPSNTKVDKKVEPKSCDKTHTCPPCPAPELLGGDSVFLFPPKPKDVLMISRTPEVTCVVIDVAHEDPEVKFNWYVDGVEVHNAKTKPREEQYNSTYRVVSVLPVLHRDWLNGKEYKCKVSNKALPKPIEKTISKAKGQPREPQVYTLPPSREEMTKNQVSLTCLVKGFYPSDIAVEWESNGQPENNYKTTPPVLDSDGSFFLYSKLTVKKSRWQQGNVFSCSVMHEALHNHYTQKSLSLSP light: DIVMTQSPATLSLSPGERATLSCTTSQSVYHENWLSWFQQKPGQPPKLLIYWASTLAYGVPSRFSGSGSGTDFTLTISSLQPEDAATYYCAGGYGGGRYAFGQGTKVEIKRTVAAPSVFIFPPSDEQLKSGTASVVCLLNNFYPREAKVQWKVDNALQSGNSQESVTEQDSKDSTYSLSSTLTLSKADYEKHKVYACEVTHQGLSSPVTKSFNRGEC | 290 | 19 | 110 | 0.56 | 0.003 | 0.06 | 0.007 | 10.4

Continued, values first:

Row | Kd [1] [µM] | Kd [2] [µM] | Kd [3] [µM] | Kd [4] [µM] | KD fold (SG1 = 1) [5] [fold] | KD fold (SG1 = 1) [6] [fold] | KD fold (SG1 = 1) [7] [fold] | KD fold (SG1 = 1) [8] [fold] | Binder
3 | 96 | 8.9 | 22 | 0.49 | 0.008 | 0.12 | 0.034 | 11.8 | MS103240H795-TT34/M103202L1045-SK1 (antibody, human IgG1, kappa, CH = SG1 with L234Y/P238D/T250V/V264I/S267A/T307P/Q311R/A330K/P343R (EU numbering)) heavy: QVQLVESGGGLVQPGGSLRLSCAVSGIDLSHDDISWVRQAPGKGLEWVSIISYAGSTYYASWAKGRLTISKDTSKNQVVLTMTNMDPVDTATYYCARGVPAYSHGGDLWGQGTLVTVSSASTKGPSVFPLAPSSKSTSGGTAALGCLVKDYFPEPVTVSWNSGALTSGVHTFPAVLQSSGLYSLSSVVTVPSSSLGTQTYICNVNHKPSNTKVDKKVEPKSCDKTHTCPPCPAPEYLGGDSVFLFPPKPKDVLMISRTPEVTCVVIDVAHEDPEVKFNWYVDGVEVHNAKTKPREEQYNSTYRVVSVLPVLHRDWLNGKEYKCKVSNKALPKPIEKTISKAKGQRREPQVYTLPPSREEMTKNQVSLTCLVKGFYPSDIAVEWESNGQPENNYKTTPPVLDSDGSFFLYSKLTVDKSRWQQGNVFSCSVMHEALHNHYTQKSLSLSP light: DIVMTQSPATLSLSPGERATLSCTTSQSVYHENWLSWFQQKPGQPPKLLIYWASTLAYGVPSRFSGSGSGTDFTLTISSLQPEDAATYYCAGGYGGGRYAFGQGTKVEIKRTVAAPSVFIFPPSDEQLKSGTASVVCLLNNFYPREAKVQWKVDNALQSGNSQESVTEQDSKDSTYSLSSTLTLSKADYEKHKVYACEVTHQGLSSPVTKSFNRGEC
4 | 440 | 12 | 42 | 0.36 | 0.002 | 0.09 | 0.018 | 16.1 | MS103240H795-TT33/M103202L1045-SK1 (antibody, human IgG1, kappa, CH = SG1 with L234Y/P238D/T250V/V264I/T307P/Q311R/A330K/D413K (EU numbering)) heavy: QVQLVESGGGLVQPGGSLRLSCAVSGIDLSHDDISWVRQAPGKGLEWVSIISYAGSTYYASWAKGRLTISKDTSKNQVVLTMTNMDPVDTATYYCARGVPAYSHGGDLWGQGTLVTVSSASTKGPSVFPLAPSSKSTSGGTAALGCLVKDYFPEPVTVSWNSGALTSGVHTFPAVLQSSGLYSLSSVVTVPSSSLGTQTYICNVNHKPSNTKVDKKVEPKSCDKTHTCPPCPAPEYLGGDSVFLFPPKPKDVLMISRTPEVTCVVIDVSHEDPEVKFNWYVDGVEVHNAKTKPREEQYNSTYRVVSVLPVLHRDWLNGKEYKCKVSNKALPKPIEKTISKAKGQPREPQVYTLPPSREEMTKNQVSLTCLVKGFYPSDIAVEWESNGQPENNYKTTPPVLDSDGSFFLYSKLTVKKSRWQQGNVFSCSVMHEALHNHYTQKSLSLSP light: DIVMTQSPATLSLSPGERATLSCTTSQSVYHENWLSWFQQKPGQPPKLLIYWASTLAYGVPSRFSGSGSGTDFTLTISSLQPEDAATYYCAGGYGGGRYAFGQGTKVEIKRTVAAPSVFIFPPSDEQLKSGTASVVCLLNNFYPREAKVQWKVDNALQSGNSQESVTEQDSKDSTYSLSSTLTLSKADYEKHKVYACEVTHQGLSSPVTKSFNRGEC
5 | 110 | 12 | 50 | 0.4 | 0.007 | 0.09 | 0.015 | 14.5 | MS103240H795-TT32/M103202L1045-SK1 (antibody, human IgG1, kappa, CH = SG1 with L234Y/P238D/T250V/V264I/T307P/Q311R/A330K/P343R (EU numbering)) heavy: QVQLVESGGGLVQPGGSLRLSCAVSGIDLSHDDISWVRQAPGKGLEWVSIISYAGSTYYASWAKGRLTISKDTSKNQVVLTMTNMDPVDTATYYCARGVPAYSHGGDLWGQGTLVTVSSASTKGPSVFPLAPSSKSTSGGTAALGCLVKDYFPEPVTVSWNSGALTSGVHTFPAVLQSSGLYSLSSVVTVPSSSLGTQTYICNVNHKPSNTKVDKKVEPKSCDKTHTCPPCPAPEYLGGDSVFLFPPKPKDVLMISRTPEVTCVVIDVSHEDPEVKFNWYVDGVEVHNAKTKPREEQYNSTYRVVSVLPVLHRDWLNGKEYKCKVSNKALPKPIEKTISKAKGQRREPQVYTLPPSREEMTKNQVSLTCLVKGFYPSDIAVEWESNGQPENNYKTTPPVLDSDGSFFLYSKLTVDKSRWQQGNVFSCSVMHEALHNHYTQKSLSLSP light: DIVMTQSPATLSLSPGERATLSCTTSQSVYHENWLSWFQQKPGQPPKLLIYWASTLAYGVPSRFSGSGSGTDFTLTISSLQPEDAATYYCAGGYGGGRYAFGQGTKVEIKRTVAAPSVFIFPPSDEQLKSGTASVVCLLNNFYPREAKVQWKVDNALQSGNSQESVTEQDSKDSTYSLSSTLTLSKADYEKHKVYACEVTHQGLSSPVTKSFNRGEC
